{"source": "patent US20130330802A1", "molecules": {"B1": {"name": "recombinant human iduronate 2-sulfatase (rhI2S) of the present invention (Lot Nos. 1-7), P22304 26-550 (enzyme)", "chain": "SETQANSTTDALNVLLIIVDDLRPSLGCYGDKLVRSPNIDQLASHSLLFQNAFAQQAVCAPSRVSFLTGRRPDTTRLYDFNSYWRVHAGNFSTIPQYFKENGYVTMSVGKVFHPGISSNHTDDSPYSWSFPPYHPSSEKYENTKTCRGPDGELHANLLCPVDVLDVPEGTLPDKQSTEQAIQLLEKMKTSASPFFLAVGYHKPHIPFRYPKEFQKLYPLENITLAPDPEVPDGLPPVAYNPWMDIRQREDVQALNISVPYGPIPVDFQRKIRQSYFASVSYLDTQVGRLLSALDDLQLANSTIIAFTSDHGWALGEHGEWAKYSNFDVATHVPLIFYVPGRTASLPEAGEKLFPYLDPFDSASQLMEPGRQSMDLVELVSLFPTLAGLAGLQVPPRCPVPSFHVELCREGKNLLKHFRFRDLEEDPYLPGNPRELIAYSQYPRPSDIPQWNSDKPSLKDIKIMGYSIRTIDYRYTVWVGFNPDEFLANFSDIHAGELYFVDSDPLQDHNMYNDSQGGDLFQLLMP", "modifications": "here or on the partner: glycosylated; linked oligosaccharide chains containing mannose-6-phosphate residues, 3.74-5.38 mol/mol (average 4.37 mol/mol)"}, "B2": {"name": "recombinant human iduronate 2-sulfatase (rhI2S) of the present invention (Lot Nos. 1-7) (enzyme)", "chain": "B1 chain", "modifications": "glycosylated; linked oligosaccharide chains containing mannose-6-phosphate residues, 3.74-5.38 mol/mol (average 4.37 mol/mol)"}}, "key": {"[1]": {"molecular_target": "mannose 6-phosphate (M6P) receptor on cultured human fibroblasts (CCD-1076SK) (human) (UniProt P11717)", "test": "cell-based or functional assay"}, "[2]": {"molecular_target": "His-tagged-hMPR9 (domain 9 of human mannose-6-phosphate receptor with C-terminal His-tag) (human) (UniProt P11717)", "test": "SPR (Biacore T100), His-tagged-hMPR9 on NTA chip, rhI2S as analyte"}, "[3]": {"molecular_target": "mannose 6-phosphate (M6P) receptor on cultured human fibroblasts (CCD-1076SK) (human), P11717", "sequence (P11717 41-2491)": "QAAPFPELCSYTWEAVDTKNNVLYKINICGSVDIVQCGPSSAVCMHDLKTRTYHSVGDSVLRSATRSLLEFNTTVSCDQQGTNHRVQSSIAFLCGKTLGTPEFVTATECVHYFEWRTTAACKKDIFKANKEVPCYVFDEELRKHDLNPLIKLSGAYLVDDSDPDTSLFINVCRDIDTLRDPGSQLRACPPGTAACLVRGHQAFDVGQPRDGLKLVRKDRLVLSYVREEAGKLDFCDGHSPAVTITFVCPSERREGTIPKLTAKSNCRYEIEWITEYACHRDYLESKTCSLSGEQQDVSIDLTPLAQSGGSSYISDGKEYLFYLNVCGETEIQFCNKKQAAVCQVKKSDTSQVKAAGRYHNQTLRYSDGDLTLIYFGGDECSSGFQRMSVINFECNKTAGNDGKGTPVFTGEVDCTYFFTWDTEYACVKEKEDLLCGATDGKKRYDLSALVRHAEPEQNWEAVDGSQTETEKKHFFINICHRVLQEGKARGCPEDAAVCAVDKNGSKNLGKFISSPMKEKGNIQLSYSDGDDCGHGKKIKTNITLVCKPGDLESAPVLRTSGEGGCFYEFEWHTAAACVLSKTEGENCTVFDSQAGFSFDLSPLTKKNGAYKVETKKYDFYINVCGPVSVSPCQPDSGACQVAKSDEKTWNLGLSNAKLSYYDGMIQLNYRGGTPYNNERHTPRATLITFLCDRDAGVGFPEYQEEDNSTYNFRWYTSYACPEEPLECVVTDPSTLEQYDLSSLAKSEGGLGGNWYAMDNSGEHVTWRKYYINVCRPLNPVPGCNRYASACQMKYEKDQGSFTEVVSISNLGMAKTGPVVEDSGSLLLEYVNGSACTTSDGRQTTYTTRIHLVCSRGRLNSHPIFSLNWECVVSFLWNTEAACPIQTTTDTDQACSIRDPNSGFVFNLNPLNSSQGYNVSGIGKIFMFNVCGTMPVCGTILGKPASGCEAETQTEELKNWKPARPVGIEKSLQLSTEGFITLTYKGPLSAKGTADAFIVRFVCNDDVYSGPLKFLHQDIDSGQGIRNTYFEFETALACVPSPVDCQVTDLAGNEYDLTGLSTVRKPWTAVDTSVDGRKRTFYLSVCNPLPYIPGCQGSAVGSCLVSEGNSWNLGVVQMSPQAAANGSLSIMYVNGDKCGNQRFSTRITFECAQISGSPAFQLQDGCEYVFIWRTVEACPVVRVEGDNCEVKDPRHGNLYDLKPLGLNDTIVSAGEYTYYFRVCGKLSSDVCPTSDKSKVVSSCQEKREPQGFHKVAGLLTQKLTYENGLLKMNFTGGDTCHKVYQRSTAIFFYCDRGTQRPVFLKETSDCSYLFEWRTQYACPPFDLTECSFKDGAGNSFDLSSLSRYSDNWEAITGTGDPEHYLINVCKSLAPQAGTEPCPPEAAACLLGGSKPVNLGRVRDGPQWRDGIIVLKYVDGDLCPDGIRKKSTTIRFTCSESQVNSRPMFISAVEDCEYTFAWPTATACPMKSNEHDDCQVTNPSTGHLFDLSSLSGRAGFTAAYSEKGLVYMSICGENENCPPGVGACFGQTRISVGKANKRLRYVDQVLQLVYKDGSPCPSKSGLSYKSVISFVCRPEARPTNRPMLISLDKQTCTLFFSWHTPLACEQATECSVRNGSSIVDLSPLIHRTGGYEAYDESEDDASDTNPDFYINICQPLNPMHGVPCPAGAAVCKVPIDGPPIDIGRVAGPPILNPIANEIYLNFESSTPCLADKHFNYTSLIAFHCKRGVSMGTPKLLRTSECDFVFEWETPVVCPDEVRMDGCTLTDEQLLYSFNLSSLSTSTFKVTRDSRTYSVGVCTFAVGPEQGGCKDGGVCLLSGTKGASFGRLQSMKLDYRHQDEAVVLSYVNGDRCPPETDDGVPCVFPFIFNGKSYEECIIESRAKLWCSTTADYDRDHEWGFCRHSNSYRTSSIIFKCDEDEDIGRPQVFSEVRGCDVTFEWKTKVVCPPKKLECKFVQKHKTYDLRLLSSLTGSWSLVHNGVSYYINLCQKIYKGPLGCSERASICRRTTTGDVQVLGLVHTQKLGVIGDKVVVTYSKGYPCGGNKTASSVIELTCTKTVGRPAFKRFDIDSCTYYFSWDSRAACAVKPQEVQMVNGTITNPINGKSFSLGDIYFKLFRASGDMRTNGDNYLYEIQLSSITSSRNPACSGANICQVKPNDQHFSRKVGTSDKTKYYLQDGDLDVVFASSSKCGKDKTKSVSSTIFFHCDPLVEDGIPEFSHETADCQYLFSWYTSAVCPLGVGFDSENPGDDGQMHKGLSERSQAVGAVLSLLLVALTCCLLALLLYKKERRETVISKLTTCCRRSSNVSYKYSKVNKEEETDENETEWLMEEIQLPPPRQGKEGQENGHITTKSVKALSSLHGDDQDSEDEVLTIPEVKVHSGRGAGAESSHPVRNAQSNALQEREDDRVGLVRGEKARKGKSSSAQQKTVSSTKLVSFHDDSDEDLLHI", "test": "cell-based or functional assay"}, "[4]": {"molecular_target": "His-tagged-hMPR9 (domain 9 of human mannose-6-phosphate receptor with C-terminal His-tag) (human) (UniProt P11717)", "test": "SPR (Biacore T100), His-tagged-hMPR9 on NTA chip, rhI2S as analyte; low end of range over lots 1-7"}, "[5]": {"molecular_target": "His-tagged-hMPR9 (domain 9 of human mannose-6-phosphate receptor with C-terminal His-tag) (human) (UniProt P11717)", "test": "SPR (Biacore T100), His-tagged-hMPR9 on NTA chip, rhI2S as analyte; high end of range over lots 1-7"}, "[6]": {"molecular_target": "His-tagged-hMPR9 (domain 9 of human mannose-6-phosphate receptor with C-terminal His-tag) (human) (UniProt P11717)", "test": "SPR (Biacore T100), His-tagged-hMPR9 on NTA chip, rhI2S as analyte; average of lots 1-7"}}}
{"molecule": "commercially-available medicinal rhI2S (from UniProt P22304 26-550) (enzyme)", "values": [{"measurement": "EC50 of cellular uptake (human fibroblasts, 18 hrs, rhI2S in lysate by ELISA)", "setting": "[1]", "value": 1.46, "unit": "µg/mL"}, {"measurement": "Kd", "setting": "[2]", "value": 3.32, "unit": "nM"}]}
{"molecule": "B1", "values": [{"measurement": "EC50 of cellular uptake (human fibroblasts, 18 hrs, rhI2S in lysate by ELISA)", "setting": "[3]", "value": 0.452, "unit": "µg/mL"}]}
{"molecule": "B2", "values": [{"measurement": "Kd", "setting": "[4]", "value": 0.758, "unit": "nM"}, {"measurement": "Kd", "setting": "[5]", "value": 1.23, "unit": "nM"}, {"measurement": "Kd", "setting": "[6]", "value": 1.04, "unit": "nM"}]}
